B1: GAL4 DNA binding domain fusion of the cytoplasmic domain of CD28 (receptor, UniProt P04386 1-147, looked up)
chain: MKLLSSIEQACDICRLKKLKCSKEKPKCAKCLKNNWECRYSPKTKRSPLTRAHLTEVESRLERLEQLFLLIFPREDLDMILKMDSLQDIKALLTGLFVQDNVNKDAVTDRLASVETDMPLTLRQHRISATSSSEESSNKGQRQLTVSRSKRSRLLHSDYMNMTPRRPGPTRKHYQPYAPPRDFAAYRS
notes: also called CD28 (yeast bait)
B2: GAL4 activation domain-FADD fusion protein (GAL4ad-FADD) (other, not shown: large carriers)
chain: MDPFLVLLHSVSSSLSSSELTELKFLCLGRVGKRKLERVQSGLDLFSMLLEQNDLEPGHTELLRELLASLRRHDLLRRVDDFEAGAAAGAAPGEEDLCAAFNVICDNVGKDWRRLARQLKVSDTKIDSIEDRYPRNLTERVRESLRIWKNTEKENATVAHLVGALRSCQMNLVADLVQEVQQARDLQNRSGAMSPMSWNSDASTSEAS

Experiment [1] deals with B2. Nature of the experiment: yeast two-hybrid, β-galactosidase filter assay. An excerpt:
(§1) The following yeast two-hybrid system was used and constructed as follows. The cytoplasmic domains of Fas, Fas-FD8, TNRF-1, Δ-TNFR-1, CD40, and CD28 were obtained by PCR and cloned in-frame, as confirmed by sequencing, into the GAL4 DNA binding domain (GAL4bd) vector pAS1CYH2. Full-length A20 and B94 were similarly cloned into the bait vector. GAL4bd-Fas was cotransformed with a prey plasmid containing a human B-cell cDNA expression library fused to the GAL4 activation domain (GAL4ad) in the pACT plasmid. A more detailed account of the plasmids used in the procedure for the yeast two-hybrid system can be found in Hu et al. (1994) *J. Biol. Chem.* 269:30069-30072.
(§2) The yeast two-hybrid system was used to screen for proteins that interact with the cytoplasmic domain of Fas. An expression vector was constructed by fusing the GAL4 DNA-binding domain to the cytoplasmic tail of the human Fas antigen (GAL4bd-Fas). This bait plasmid was cotransformed in yeast with a prey plasmid containing a human B-cell cDNA expression library fused to the GAL4-activation domain. Seventeen positive clones were obtained from 2 ×10^6 transformants screened. To determine the specificity of interaction, plasmids containing the activation domain fusion proteins were recovered from the putative positive clones and cotransformed with GAL4bd-Fas and control heterologous baits.

The target of experiment [2] is T1, GAL4 DNA binding domain fusion of full-length A20 (UniProt P04386 1-147; P21580 1-790).
T1 construct: also called A20 (yeast bait)
As to the kind of experiment: yeast two-hybrid, β-galactosidase filter assay.
From the text: as §1, §2

For experiment [3], the target named is T2, GAL4 DNA binding domain fusion of full-length B94 (UniProt P04386 1-147; Q03169 1-654).
T2 construct: also called B94 (yeast bait)
Nature of the experiment: yeast two-hybrid, β-galactosidase filter assay.
From the text: as §1, §2

The target in experiment [4] is T3, GAL4 DNA binding domain fusion of the cytoplasmic domain of CD40 (UniProt P04386 1-147; P25942 216-277, limits assumed).
T3 construct: also called CD40 (yeast bait)
Nature of the experiment: yeast two-hybrid, β-galactosidase filter assay.
From the text: as §1, §2

Experiment [5] concerns the target T4, GST (UniProt P08515 1-218 = GST).
T4 construct: Control protein on glutathione beads
As to the kind of experiment: GST pull-down from lysates of transfected 293T cells. How it is done: (§3) Detergent lysates were prepared and incubated with various GST fusion proteins immobilized on glutathione-Sepharose beads. The samples were analyzed by SDS-PAGE and autoradiography (upper panel). The respective GST fusion proteins are shown as in FIG. 4B (middle panel).

For experiment [6], the target named is T5, GST-Fas (GST fusion protein containing the cytoplasmic domain of Fas) (UniProt P25445 191-335).
T5 construct: domain: cytoplasmic domain; Made in E. coli BL21(DE3)pLysS and immobilized on glutathione beads; not shown: glutathione S-transferase of vector pGSTag
T5 sequence (looked up): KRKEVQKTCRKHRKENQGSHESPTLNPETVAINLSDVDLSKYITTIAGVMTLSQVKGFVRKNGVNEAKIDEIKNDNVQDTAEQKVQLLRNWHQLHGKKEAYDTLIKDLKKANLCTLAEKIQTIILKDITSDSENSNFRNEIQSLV
The description is as above. How it is done: as §3

Experiment [7] deals with T1, GAL4 DNA binding domain fusion of …. As to the kind of experiment: yeast two-hybrid.
From the text: as §1, §2

Experiment [8] concerns the target GAL4 DNA-binding domain fused to the cytoplasmic tail of the human Fas antigen (GAL4bd-Fas) (human, UniProt P04386 1-147; P25445 191-335, limits assumed). As to the kind of experiment: yeast two-hybrid.
From the text: as §1, §2

Experiment [9] concerns the target T2, GAL4 DNA binding domain fusion of …. As to the kind of experiment: yeast two-hybrid.
From the text: as §1, §2

Experiment [10] has as its target B1. Nature of the experiment: yeast two-hybrid.
From the text: as §1, §2

Experiment [11] has as its target T3, GAL4 DNA binding domain fusion of the …. Nature of the experiment: yeast two-hybrid.
From the text: as §1, §2

Experiment [12] concerns the target T6, cytoplasmic domain of Fas (UniProt P25445 191-335, limits assumed).
T6 construct: domain: cytoplasmic domain
T6 sequence (looked up): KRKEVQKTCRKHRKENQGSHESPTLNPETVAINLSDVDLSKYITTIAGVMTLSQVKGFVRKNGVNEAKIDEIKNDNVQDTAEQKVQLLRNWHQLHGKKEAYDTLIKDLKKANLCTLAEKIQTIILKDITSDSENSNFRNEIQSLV
Nature of the experiment: not described.

The target in experiment [13] is T4, GST. Nature of the experiment: GST pull-down of 35S-labeled in vitro translated FADD, SDS-PAGE and autoradiography.

The values below come from patent publication US7807783 (REGENTS OF THE UNIVERSITY OF MICHIGAN, dated 2010).

T4 sequence (P08515 whole entry): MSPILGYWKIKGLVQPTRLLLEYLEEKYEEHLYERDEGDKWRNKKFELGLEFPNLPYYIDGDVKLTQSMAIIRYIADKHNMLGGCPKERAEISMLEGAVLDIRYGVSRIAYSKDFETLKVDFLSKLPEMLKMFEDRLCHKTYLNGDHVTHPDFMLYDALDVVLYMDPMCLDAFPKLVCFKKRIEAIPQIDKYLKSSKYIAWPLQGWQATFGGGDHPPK

B1: the binding result in experiment [1] was “no binding”.
Take B2: the binding result in [2], in experiment [3] and in experiment [4] was “no binding” in each case.

B3: AU1-epitope tagged FADD (AU1-FADD) (other)
chain: DTYRYIMDPFLVLLHSVSSSLSSSELTELKFLCLGRVGKRKLERVQSGLDLFSMLLEQNDLEPGHTELLRELLASLRRHDLLRRVDDFEAGAAAGAAPGEEDLCAAFNVICDNVGKDWRRLARQLKVSDTKIDSIEDRYPRNLTERVRESLRIWKNTEKENATVAHLVGALRSCQMNLVADLVQEVQQARDLQNRSGAMSPMSWNSDASTSEAS
modifications: 35S-methionine/cysteine metabolic label
notes: the tag is placed N-terminal by the name only
On to B3, for which the binding result with GST [5] is given as “no binding”.

B4: AU1-FADDmt (other)
chain: DTYRYIMDPFLVLLHSVSSSLSSSELTELKFLCLGRVGKRKLERVQSGLDLFSMLLEQNDLEPGHTELLRELLASLRRHDLLRRVDDFEAGAAAGAAPGEEDLCAAFNVICDNVGKDWRRLARQLKNSDTKIDSIEDRYPRNLTERVRESLRIWKNTEKENATVAHLVGALRSCQMNLVADLVQEVQQARDLQNRSGAMSPMSWNSDASTSEAS
modifications: 35S-methionine/cysteine metabolic label
notes: also called point mutant of FADD
On to B4, for which the binding result (with GST [5]; in experiment [6]) was “no binding” each time.

B5: clone 8 (GAL4 activation domain fusion isolated in the yeast two-hybrid screen) (other, not shown: large carriers)
chain: SGLDLFSMLLEQNDLEPGHTELLRELLASLRRHDLLRRVDDFEAGAAAGAAPGEEDLCAAFNVICDNVGKDWRRLARQLKVSDTKIDSIEDRYPRNLTERVRESLRIWKNTEKENATVAHLVGALRSCQMNLVADLVQEVQQARDLQNRSGAMSPMSWNSDASTSEAS
Turning to B5, the binding result is listed as “no binding” in experiment [7]; “binds” in experiment [8]; “no binding” in [9]; “no binding” in experiment [10]; “no binding” in [11].

B6: N-FADD (other)
chain: DTYRYIMDPFLVLLHSVSSSLSSSELTELKFLCLGRVGKRKLERVQSGLDLFSMLLEQNDLEPGHTELLRELLASLRRHDLLRRVDDFEAGAAAGAAPGEEDLCAAFNVICDNVGKDWRRLAR
notes: the AU1-tagged form is the one made for the cell death assays; also called AU1-N-FADD
In the case of B6, the binding result in [12] is “no binding”.

B7: HA-epitope tagged FADD (HA-FADD) (other)
chain: YPYDVPDYAMDPFLVLLHSVSSSLSSSELTELKFLCLGRVGKRKLERVQSGLDLFSMLLEQNDLEPGHTELLRELLASLRRHDLLRRVDDFEAGAAAGAAPGEEDLCAAFNVICDNVGKDWRRLARQLKVSDTKIDSIEDRYPRNLTERVRESLRIWKNTEKENATVAHLVGALRSCQMNLVADLVQEVQQARDLQNRSGAMSPMSWNSDASTSEAS
modifications: 35S-methionine/cysteine metabolic or in vitro translation label
notes: also called in vitro translated FADD; 35S-labeled FADD
With B7, the binding result with GST [13] is “no binding”.

B8: clone 15 (GAL4 activation domain fusion isolated in the yeast two-hybrid screen) (other, not shown: large carriers)
chain: KFLCLGRVGKRKLERVQSGLDLFSMLLEQNDLEPGHTELLRELLASLRRHDLLRRVDDFEAGAAAGAAPGEEDLCAAFNVICDNVGKDWRRLARQLKVSDTKIDSIEDRYPRNLTERVRESLRIWKNTEKENATVAHLVGALRSCQMNLVADLVQEVQQARDLQNRSGAMSPMSWNSDASTSEAS
notes: also called GAL4ad-FADD (clone 15)
Consider B8, for which the binding result in experiment [7], in experiment [9], in experiment [10] and in [11] was “no binding” throughout.
